Legend:
[1] = molecular target: T1, MARCKS peptide KKKRFSFKKSFKLSGFSFKK (SEQ ID NO:111) (not fully specified)
T1 chain: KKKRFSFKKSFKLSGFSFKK

[2] = molecular target: T2, PLD1 peptide KYKAFIRIPIPTRRHTFRRQ (SEQ ID NO:161) (not fully specified)
T2 chain: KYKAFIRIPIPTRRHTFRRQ

[3] = molecular target: T3, dag kinase zeta peptide RPQNTLKASKKKKRASFKRK (SEQ ID NO:118) (not fully specified)
T3 chain: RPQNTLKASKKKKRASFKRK

[4] = molecular target: T4, beta adducin peptide KKKFRTPSFLKKSKK (SEQ ID NO:135) (not fully specified)
T4 chain: KKKFRTPSFLKKSKK

[5] = molecular target: T5, PRKCM peptide VHYTSKDTLRKRHYWR (SEQ ID NO:91) (not fully specified)
T5 chain: VHYTSKDTLRKRHYWR

[6] = molecular target: T6, MCM2 peptide VQRHRSMRKTFARYLSFRRD (SEQ ID NO:129) (not fully specified)
T6 chain: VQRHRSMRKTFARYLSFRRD

[7] = molecular target: T7, AF15q14 peptide GFLNEPLSSKSQRRKSLKLK (SEQ ID NO:132) (not fully specified)
T7 chain: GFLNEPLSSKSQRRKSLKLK

[8] = molecular target: T8, GABRB2 peptide QKKSRLRRRASQLKI (SEQ ID NO:84) (not fully specified)
T8 chain: QKKSRLRRRASQLKI

[9] = molecular target: T9, PSCD2 peptide AARKKRISVKKKQEQ (SEQ ID NO:93) (not fully specified)
T9 chain: AARKKRISVKKKQEQ

[10] = molecular target: T10, pkc-zeta peptide GLPAPGEDKSIYRRGSRRWR (SEQ ID NO:167) (not fully specified)
T10 chain: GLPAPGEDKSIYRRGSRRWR

[11] = molecular target: T11, EBNA1BP2 peptide KRPGKKGSNKRPGKR (SEQ ID NO:112) (not fully specified)
T11 chain: KRPGKKGSNKRPGKR

[12] = molecular target: T12, MLK3 peptide HVRRRRGTFKRSKLRARD (SEQ ID NO:76) (not fully specified)
T12 chain: HVRRRRGTFKRSKLRARD

[13] = molecular target: T13, NF1 peptide AGSFKRNSIKKIV (SEQ ID NO:102) (not fully specified)
T13 chain: AGSFKRNSIKKIV

[14] = molecular target: T14, ankyrin R peptide DLIEGRKGAQIVKRASLKRG (SEQ ID NO:152) (not fully specified)
T14 chain: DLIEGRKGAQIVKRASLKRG

[15] = molecular target: T15, MLK3 peptide QQVDRERPHVRRRRGTFKRS (SEQ ID NO:128) (not fully specified)
T15 chain: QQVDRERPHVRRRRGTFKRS

[16] = molecular target: T16, dag kinase iota peptide NRKKKRTSFKRKA (SEQ ID NO:117) (not fully specified)
T16 chain: NRKKKRTSFKRKA

[17] = molecular target: T17, PSCDBP peptide LSSMFGTLPRKSRKGSVRKQ (SEQ ID NO:144) (not fully specified)
T17 chain: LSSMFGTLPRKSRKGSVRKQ

[18] = molecular target: T18, cytohesin-2 peptide VDPFYEMLAARKKRISVKKK (SEQ ID NO:150) (not fully specified)
T18 chain: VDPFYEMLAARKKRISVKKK

[19] = molecular target: T19, SYTL4 peptide RQGKRKTSIKRDTVNPL (SEQ ID NO:87) (not fully specified)
T19 chain: RQGKRKTSIKRDTVNPL

[20] = molecular target: T20, gravin peptide KKFFTQGWAGWRKKTSFRKP (SEQ ID NO:154) (not fully specified)
T20 chain: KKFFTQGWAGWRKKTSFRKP

[21] = molecular target: T21, p47phox peptide QAQRQIKRGAPPRRSSIRNA (SEQ ID NO:146) (not fully specified)
T21 chain: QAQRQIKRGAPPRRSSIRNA

[22] = molecular target: T22, NIK peptide TEGKMARVAWKGKRRSKARK (SEQ ID NO:164) (not fully specified)
T22 chain: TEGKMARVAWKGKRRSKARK

[23] = molecular target: T23, beta adducin peptide PSKSPSKKKKKFRTPSFLKK (SEQ ID NO:137) (not fully specified)
T23 chain: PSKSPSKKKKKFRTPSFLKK

[24] = molecular target: T24, SPTBN4 peptide EGGDRRASGRRK (SEQ ID NO:110) (not fully specified)
T24 chain: EGGDRRASGRRK

[25] = molecular target: T25, LIMK2 peptide KATTKKRTLRKNDRK (SEQ ID NO:108) (not fully specified)
T25 chain: KATTKKRTLRKNDRK

[26] = molecular target: T26, ARHGAP6 peptide DGQKRKKSLRKKLD (SEQ ID NO:92) (not fully specified)
T26 chain: DGQKRKKSLRKKLD

[27] = molecular target: T27, ARHGAP4 peptide AGPLRKSSLKKGGRL (SEQ ID NO:98) (not fully specified)
T27 chain: AGPLRKSSLKKGGRL

[28] = molecular target: T28, MARCKS peptide KKRFSFKKSFKLSGFSFKKN (SEQ ID NO:123) (not fully specified)
T28 chain: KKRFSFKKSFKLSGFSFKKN

[29] = molecular target: T29, KCNH2 peptide RQRKRKLSFRRRTDKD (SEQ ID NO:86) (not fully specified)
T29 chain: RQRKRKLSFRRRTDKD

[30] = molecular target: T30, ARHGAP6 peptide SAQITIPKDGQKRKKSLRKK (SEQ ID NO:156) (not fully specified)
T30 chain: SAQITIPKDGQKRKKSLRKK

[31] = molecular target: T31, PRKCA peptide RFARKGSLRQKNV (SEQ ID NO:85) (not fully specified)
T31 chain: RFARKGSLRQKNV

B1: PKC-zeta (protein)
chain: MPSRTGPKMEGSGGRVRLKAHYGGDIFITSVDAATTFEELCEEVRDMCRLHQQHPLTLKWVDSEGDPCTVSSQMELEEAFRLARQCRDEGLIIHVFPSTPEQPGLPCPGEDKSIYRRGARRWRKLYRANGHLFQAKRFNRRAYCGQCSERIWGLARQGYRCINCKLLVHKRCHGLVPLTCRKHMDSVMPSQEPPVDDKNEDADLPSEETDGIAYISSSRKHDSIKDDSEDLKPVIDGMDGIKISQGLGLQDFDLIRVIGRGSYAKVLLVRLKKNDQIYAMKVVKKELVHDDEDIDWVQTEKHVFEQASSNPFLVGLHSCFQTTSRLFLVIEYVNGGDLMFHMQRQRKLPEEHARFYAAEICIALNFLHERGIIYRDLKLDNVLLDADGHIKLTDYGMCKEGLGPGDTTSTFCGTPNYIAPEILRGEEYGFSVDWWALGVLMFEMMAGRSPFDIITDNPDMNTEDYLFQVILEKPIRIPRFLSVKASHVLKGFLNKDPKERLGCRPQTGFSDIKSHAFFRSIDWDLLEKKQALPPFQPQITDDYGLDNFDTQFTSEPVQLTPDDEDAIKRIDQSEFEGFEYINPLLLSTEESV
B1 gave an in vitro phosphorylation (% of best substrate) [1] of 9, an in vitro phosphorylation, 1 uM peptide (% of best substrate) [2] of 15 and an in vitro phosphorylation, 10 uM peptide (% of best substrate) [2] of 9. The in vitro phosphorylation, 1 uM peptide (% of best substrate) [3] was 46, the in vitro phosphorylation, 10 uM peptide (% of best substrate) [3] was 57 and the in vitro phosphorylation, 1 uM peptide (% of best substrate) [4] was 11. The in vitro phosphorylation, 10 uM peptide (% of best substrate) [4] was 13, the in vitro phosphorylation (% of best substrate) [5] was 12 and the in vitro phosphorylation, 1 uM peptide (% of best substrate) [6] was 51. The in vitro phosphorylation, 10 uM peptide (% of best substrate) [6] was 31, the in vitro phosphorylation, 1 uM peptide (% of best substrate) [7] was 19 and the in vitro phosphorylation, 10 uM peptide (% of best substrate) [7] was 61. For the same protein, the in vitro phosphorylation (% of best substrate) [8] was 19, the in vitro phosphorylation (% of best substrate) [9] was 1 and the in vitro phosphorylation, 1 uM peptide (% of best substrate) [10] was 5. The in vitro phosphorylation, 10 uM peptide (% of best substrate) [10] was 37, the in vitro phosphorylation (% of best substrate) [11] was 1 and the in vitro phosphorylation (% of best substrate) [12] was 41. For the same protein, the in vitro phosphorylation (% of best substrate) [13] was 2, the in vitro phosphorylation, 1 uM peptide (% of best substrate) [14] was 4 and the in vitro phosphorylation, 10 uM peptide (% of best substrate) [14] was 9. For the same protein, the in vitro phosphorylation, 1 uM peptide (% of best substrate) [15] was 14, the in vitro phosphorylation, 10 uM peptide (% of best substrate) [15] was 9 and the in vitro phosphorylation, 1 uM peptide (% of best substrate) [16] was 20. The in vitro phosphorylation, 10 uM peptide (% of best substrate) [16] was 11, the in vitro phosphorylation, 1 uM peptide (% of best substrate) [17] was 16 and the in vitro phosphorylation, 10 uM peptide (% of best substrate) [17] was 54. For the same protein, the in vitro phosphorylation, 1 uM peptide (% of best substrate) [18] was 3, the in vitro phosphorylation, 10 uM peptide (% of best substrate) [18] was 6 and the in vitro phosphorylation (% of best substrate) [19] was 3. It also gave an in vitro phosphorylation, 1 uM peptide (% of best substrate) [20] of 27, an in vitro phosphorylation, 10 uM peptide (% of best substrate) [20] of 23 and an in vitro phosphorylation, 1 uM peptide (% of best substrate) [21] of 32. It also gave an in vitro phosphorylation, 10 uM peptide (% of best substrate) [21] of 56, an in vitro phosphorylation, 1 uM peptide (% of best substrate) [22] of 3 and an in vitro phosphorylation, 10 uM peptide (% of best substrate) [22] of 2. The in vitro phosphorylation, 1 uM peptide (% of best substrate) [23] was 4, the in vitro phosphorylation, 10 uM peptide (% of best substrate) [23] was 5 and the in vitro phosphorylation (% of best substrate) [24] was 3. The in vitro phosphorylation (% of best substrate) [25] was 1, the in vitro phosphorylation (% of best substrate) [26] was 2 and the in vitro phosphorylation (% of best substrate) [27] was 4. It also gave an in vitro phosphorylation, 1 uM peptide (% of best substrate) [28] of 20, an in vitro phosphorylation, 10 uM peptide (% of best substrate) [28] of 20 and an in vitro phosphorylation (% of best substrate) [29] of 28. It also gave an in vitro phosphorylation, 1 uM peptide (% of best substrate) [30] of 15, an in vitro phosphorylation, 10 uM peptide (% of best substrate) [30] of 44 and an in vitro phosphorylation (% of best substrate) [31] of 56.
